Results as given in patent US6025480.

Key:
[1] = target: cyclin E-cdk2 (baculovirally coexpressed cyclin E and cdk2-HA)
[2] = target: cyclin A-cdk2 (baculovirally coexpressed cyclin A and cdk2-HA)

half-maximal inhibition of histone H1 kinase activity [1]: 0.5 nM | half-maximal inhibition of histone H1 kinase activity [2]: 0.5 nM
Substance: flag-p57 (mouse p57^KIP2 tagged at the N-terminus with the flag epitope)
